B1: S. pombe α-tubulin1 (in the microtubule lattice) (natural protein, UniProt P04688 1-455, looked up)
chain: MREVISVHVGQAGVQIGNACWELYCLEHGIGPDGFPTENSEVHKNNSYLNDGFGTFFSETGQGKFVPRSIYVDLEPNVIDQVRTGPYKDLFHPEQMVTGKEDASNNYARGHYTVGKEMIDSVLERIRRMADNCSGLQGFLVFHSFGGGTGSGLGALLLERLNMEYGKKSNLQFSVYPAPQVSTSVVEPYNSVLTTHATLDNSDCTFMVDNEACYDICRRNLDIERPTYENLNRLIAQVVSSITASLRFAGSLNVDLNEFQTNLVPYPRIHFPLVTYSPIVSAAKAFHESNSVQEITNQCFEPYNQMVKCDPRTGRYMATCLLYRGDVIPRDVQAAVTSIKSRRTIQFVDWCPTGFKIGICYEPPQHVPGSGIAKVNRAVCMLSNTTSIAEAWSRLDHKFDLMYSKRAFVHWYVGEGMEEGEFSEAREDLAALERDYEEVGQDSMDNEMYEADEEY
notes: S. pombe alpha-tubulin1, native, untagged; the sample was a wild-type mixture of alpha-tubulin1 and alpha-tubulin2, the model and the residue numbers are those of alpha-tubulin1; Subunit of m2, written alone for the contacts seen in the structure; also called Sp_α-tubulin1; Sp_α-tub; source: purified from S. pombe as tag-free endogenous tubulin (dual isoform), polymerized in vitro
B2: monomeric Mal3 (1-143, Mal3-143) (domain or fragment, S. pombe, UniProt Q10113 1-143, looked up)
chain: MSESRQELLAWINQVTSLGLTRIEDCGKGYAMIQIFDSIYQDIPLKKVNFECNNEYQYINNWKVLQQVFLKKGIDKVVDPERLSRCKMQDNLEFVQWAKRFWDQYYPGGDYDALARRGNRGPANTRVMNSSAGATGPSRRRQV
notes: also called Mal3 CH domain
B3: full-length Mal3-GFP (natural protein, S. pombe, UniProt Q10113 1-308, looked up)
chain: MSESRQELLAWINQVTSLGLTRIEDCGKGYAMIQIFDSIYQDIPLKKVNFECNNEYQYINNWKVLQQVFLKKGIDKVVDPERLSRCKMQDNLEFVQWAKRFWDQYYPGGDYDALARRGNRGPANTRVMNSSAGATGPSRRRQVSSGSSTPSMTKSSANNNNVSSTANTAAVLRAKQAQQQITSLETQLYEVNETMFGLERERDFYFNKLREIEILVQTHLTTSPMSMENMLERIQAILYSTEDGFELPPDQPADLTTALTDHDTNNVAEEAQMTDLKDSETQRVPSAPDFVHARLQSLEVDDDENITF
notes: Mal3, the S. pombe EB protein, full length; His tag removed by TEV protease cleavage; also called dimeric Mal3; not shown: e-GFP, C-terminal, kept

Tests used:
[1] = target: the molecule itself; test: cryo-EM structure; 20 or 30 uM dual-isoform Sp_tub polymerized with 5 mM GTP and 25 uM Mal3-143 at 32 °C in PEM mixed 1:1 with MES buffer; 13 uM MTs incubated with 60 uM Mal3 before freezing; 13-PF (13_3) MTs, single-particle averaging, 4.6 Å, no kinesin motor domain
[2] = target: B1; test: as above; conditions: both partners purified
[3] = target: T1, dynamic microtubules polymerized from unlabeled single-isoform S. pombe tubulin (S. pombe, UniProt P04688 1-455; P05219 1-448); test: TIRF microscopy; dynamic unlabeled MTs grown from antibody-immobilized GMPCPP pig brain MT seeds; GFP-labelled EB protein in solution; PEM100 pH 6.9 plus 1 mM GTP, with additional KCl (55, 75, 85 mM) in some experiments; 4.5 or 14 uM Sp_tub, 25 uM pig brain tubulin; conditions: both partners purified
T1 construct: S. pombe alpha-tubulin1, untagged; S. pombe beta-tubulin, untagged; Polymer of alpha-beta heterodimers, grown with 1 mM GTP from Alexa-488-labeled GMPCPP-stabilized pig brain MT seeds
T1 sequence (P05219 whole entry, canonical isoform, one chain of several): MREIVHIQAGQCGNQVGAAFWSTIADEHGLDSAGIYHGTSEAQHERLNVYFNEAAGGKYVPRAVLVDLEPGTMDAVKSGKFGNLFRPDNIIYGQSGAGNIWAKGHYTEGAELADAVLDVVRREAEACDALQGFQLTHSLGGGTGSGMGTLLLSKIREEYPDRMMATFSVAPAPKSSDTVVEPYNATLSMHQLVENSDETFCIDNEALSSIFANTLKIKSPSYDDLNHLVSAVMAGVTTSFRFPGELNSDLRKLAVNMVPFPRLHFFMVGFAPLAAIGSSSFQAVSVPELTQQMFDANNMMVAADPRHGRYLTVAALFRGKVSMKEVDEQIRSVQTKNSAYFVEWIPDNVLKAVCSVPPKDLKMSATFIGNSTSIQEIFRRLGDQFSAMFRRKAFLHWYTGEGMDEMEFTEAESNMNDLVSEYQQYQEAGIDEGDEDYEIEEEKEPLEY

B1: binds [1].

B2: binds [2].

B3: binds [3].

From PMC5727398, “Nucleotide– and Mal3-dependent changes in fission yeast microtubules suggest a structural plasticity view of dynamics” (Nature Communications, 2017)
